Test system: MS2 coat protein
Assay: apparent KD of MS2 coat protein; designed switch direction (-1 OFF switch, 1 ON switch): -1; higher = weaker reporter binding
How it was run: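 Designed RNA switches with common flanks were made on Illumina chips by stalled E. coli RNA polymerase. Titration with SNAP-549-labelled MS2 coat protein doubled from 0.7 or 1.5 nM up to 3 µM. Apparent KD is each design's median over clusters after curve-fitting normalised fluorescence.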

[1] = Eterna round: R95, input ligand: microRNA oligo, concentration not stated
[2] = Eterna round: R95, input ligand: FMN 200 uM
[3] = Eterna round: R95, input ligand: none
[4] = input ligand: microRNA oligo, concentration not stated

Sequence	apparent KD of MS2 coat protein (input ligand: FMN 200 uM)	apparent KD of MS2 coat protein (input ligand: none)	apparent KD of MS2 coat protein [1]	apparent KD of MS2 coat protein [2]	apparent KD of MS2 coat protein [3]	apparent KD of MS2 coat protein [4]
CUCUCACAUGAGGAUCACCCAUGUUAGGAUAUUCCGUAGCGACUUACAAGAGGAGCAGGAAGAAGGAGCCUGGC [Eternabot (L1) Solution 40] (Eterna round: R97, puzzle: Exclusion 1)	343 nM	435 nM	–	–	–	–
CUCUUGUCAGGAUAUUAUGGACGAUAGCAGGGCUACGUCAGUGAGAAGGGACAUGAGGAUCACCCAUGUAAAAU [Onatbezaes] (puzzle: Exclusion 4)	–	–	77.1 nM	–	–	–
CUCUUGUGAGGAUAUCAGGUGUGCUAGCGUACUGGUACAUCUGAGAAGGCACAUGAGGAUCACCCAUGUUUCUA [Mat - Exclusion 4 - Mod of JL - D40] (puzzle: Exclusion 4)	–	–	93.8 nM	–	–	–
CUGAGCAGACGGAGAUCCAACAUGAGGAUCACCCAUGUCUCAAAAGCUUCUUGCUCGUCUUAUCCUCCUCUGUUCUC [Maeronqu] (puzzle: Sensor v3, turn-off variant 1)	–	–	215 nM	36.8 nM	33.1 nM	–
CUGAGGUAGCGGUCCUAUGACAUGAGGAUCACCCAUGUACCUUGCUUUGAGCAUUUUGCUCGUCUUAUGAUUCUCGG [Mat - Sensor v3 - turn-off var 1 - JL Mod - D39] (puzzle: Sensor v3, turn-off variant 1)	–	–	474 nM	371 nM	427 nM	–
CUGAGGUAGCGGUCCUAUGACAUGAGGAUCACCCAUGUGCCUCGCUACAAGCUUUUUGCUCGUUUUAUGAUUCUCGG [JL Atriat mod 11] (puzzle: Sensor v3, turn-off variant 1)	–	–	90.1 nM	71.2 nM	95.3 nM	–
CUGCUCCGUGUAGGAUAUCCCGGCAACCAACCGGGAGAAGGACAUGAGGAUCACCCAUGUAUGUUAUUAUCACGUGAAGCGUCC [Design 28] (Eterna round: R96, puzzle: Exclusion NG 1)	29 nM	19.9 nM	–	–	–	12.5 nM
CUGCUCCGUGUAGGAUAUGCAUAUUCCCAUUAUGCAGAAGGACAUGAGGAUCACCCAUGUAUGUUAUUAUCAUGUGUUGCAUGC [Design 10] (Eterna round: R96, puzzle: Exclusion NG 1)	146 nM	34.3 nM	–	–	–	35.2 nM
CUGCUCCGUGUAGGAUAUGCCCGCACCACCCGGGCAGAAGGACAUGAGGAUCACCCAUGUAUGUUAUUAUCACGUGUGGCGCGC [Design 39] (Eterna round: R96, puzzle: Exclusion NG 1)	23.7 nM	16.4 nM	–	–	–	11.7 nM
CUGCUCCGUGUAGGAUAUGCGCGCAACCAACGCGCAGAAGGACAUGAGGAUCACCCAUGUAUGUUAUUAUCACGUGAGGCGCAG [Design 33] (Eterna round: R96, puzzle: Exclusion NG 1)	28.9 nM	16.6 nM	–	–	–	13.2 nM
CUGCUCCGUGUAGGAUAUGCGCGCACCACCCGCGCAGAAGGACAUGAGGAUCACCCAUGUAUGUUAUUAUCACGUGAGGCGCGC [Design 37] (Eterna round: R96, puzzle: Exclusion NG 1)	16.8 nM	18 nM	–	–	–	10.9 nM
CUGCUGGAGCUUUGCUUUAGUCGUACAUGAGGAUCACCCAUGUAGGAUAUGGUAGGCUUUGCUUACUAGAAGGAUAGAGUGAUC [salish99_ExNG3_r04_605] (Eterna round: R96, puzzle: Exclusion NG 3)	289 nM	94.2 nM	–	–	–	62.8 nM
CUGCUGGAGCUUUGCUUUGGUCGUACAUGAGGAUCACCCAUGUAGGAUAUGGUAGGAUUUGCUUGCUAGAAGGAUAGAGUGGUC [salish99_ExNG3_r04_610] (Eterna round: R96, puzzle: Exclusion NG 3)	92.7 nM	54.5 nM	–	–	–	36.1 nM
CUGGAGUCAGGAUAUGACGCAGUCCGCCCAAAUAGCGGAAAUCAGAAGGGACUUGAGGAUCACCCAAGUAAAAG [Qubilexe] (Eterna round: R97, puzzle: Exclusion 4)	29.7 nM	21.8 nM	–	–	–	–
CUGGUCCGAGGAUAUAUUAAGUGAUACAUGAGGAUCACCCAUGUAAUUUGAUGGAUGUAAAUAGAAGGCGGACUAG [JL-ex5-3.10] (puzzle: Exclusion 5)	–	–	63.5 nM	36.8 nM	45 nM	–
CUGGUCCGAGGAUAUAUUAAGUGAUACAUGAGGAUCACCCAUGUUAUUUAAUGGAUGUUAAUAGAAGGCGGACUAG [JL-ex5-3.19] (puzzle: Exclusion 5)	–	–	43.9 nM	33.9 nM	34.8 nM	–
CUGGUCCGAGGAUAUAUUAUGUGAUACAUGAGGAUCACCCAUGUAAUAUGAUGGAAGUAAAUAGAAGGCGGACUAG [Mat - Exclusion 5 - JL mod - D46] (puzzle: Exclusion 5)	–	–	55.8 nM	42.5 nM	58.1 nM	–
CUGGUCCGAGGAUAUAUUAUGUGAUACAUGAGGAUCACCCAUGUUAUAUGAUGGAUGUUAAUAGAAGGCGGACUAG [JL-ex5-3.20] (puzzle: Exclusion 5)	–	–	109 nM	109 nM	184 nM	–
CUGUACUGAGGAUAUACAUGAGGAUCACCCAUGUGUCCUGGCUAGGAAACUAGCAAAGGUAGAAGGCAGUACAG [Mat - Exclusion 3 - Eli Mod - D54] (Eterna round: R97, puzzle: Exclusion 3)	150 nM	18.8 nM	–	–	–	–
CUGUACUGAGGAUAUACAUGAGGAUCACCCAUGUUCCAAGGCUAGGAAACUAGCAAAAGUAGAAGGCAGUACAG [Mat - Exclusion 3 - Eli Mod - D55] (Eterna round: R97, puzzle: Exclusion 3)	556 nM	32.7 nM	–	–	–	–
CUGUUUUCCGCAGGAUAUGCUCCUCCAUUAUUUGCAGAAGGGCGUUGAACAUGAGGAUCACCCAUGUAUGGAAAUGACUAUUGC [JR_ExcNG1_Sub069] (Eterna round: R96, puzzle: Exclusion NG 1)	19.5 nM	16.5 nM	–	–	–	11.2 nM
CUUAGUAUCUAGGAUAUCUAGUACAUAGUAUCUAGAGAAGGAGAUACAUGAGGAUCACCCAUGUUCUGUGAUCU [Exclusion 6 - 2:d] (puzzle: Exclusion 6)	–	–	217 nM	–	–	–
CUUAGUAUCUAGGAUAUCUAGUACAUAGUAUCUAGAGAAGGAGAUACAUGAGGAUCACCCAUGUUCUGUGUUCU [Exclusion 6 - 1:b] (Eterna round: R96, puzzle: Exclusion 6)	–	24.8 nM	–	–	–	18.2 nM
CUUAGUAUCUAGGAUAUCUAGUACAUAGUAUCUAGAGAAGGAGAUACAUGAGGAUCACCCAUGUUCUGUGUUCU [Exclusion 6 - 1:b] (puzzle: Exclusion 6)	–	–	22.2 nM	–	–	–
CUUCGACAUGAGGAUCACCCAUGUCAGGAUAUUGUUUAUCUGGUUUUUUACAGAUAUACAAGAAGGGAUGUGUU [LRO-Excl1-02] (puzzle: Exclusion 1)	–	–	25.9 nM	–	–	–
CUUCGUAUAGAGGAUAUAGGAUACUACGGUGUCCUAGAAGGCUGUACAUGAGGAUCACCCAUGUACUUCAGAUC [Exclusion 6 - B - 14:a] (puzzle: Exclusion 6)	–	–	11.5 nM	–	–	–

— the supplement of paper PMC9170038
